Results as given in the supplement of paper PMC10724198.
± gives the standard deviation of the averaged measurements.

What was measured:
[1] = system: Saccharomyces cerevisiae; experiment: protein stability index of tFT-peptide fusion (C-terminal peptide) (PSI (0-1 scale)); higher = more stable (slower turnover)
Description: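 MPS profiling in S. cerevisiae of the tFT-X12 degron library: putative degron peptides plus stable controls, 12 aa, fused to the C-terminus of a sfGFP-mCherry timer. Cells are FACS-sorted into 8 mCherry/sfGFP bins and deep-sequenced. PSI runs from 0 (unstable) to 1 (stable). Backgrounds are wild type, das1Δ and doa10Δ at 30 °C, and wild type, das1Δ, cdc34-1 and cdc53-1 at 37 °C; 2-3 technical replicates each.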

[2] = system: Saccharomyces cerevisiae; experiment: as above; conditions: genetic background: wild type; temperature: 30 C
[3] = genetic background: cdc34-1, temperature: 37 C
[4] = genetic background: cdc53-1, temperature: 37 C
[5] = genetic background: das1 deletion, temperature: 30 C
[6] = genetic background: das1 deletion, temperature: 37 C
[7] = genetic background: doa10 deletion, temperature: 30 C
[8] = genetic background: wild type, temperature: 30 C
[9] = genetic background: wild type, temperature: 37 C
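Further: PSI is a weighted mean of sequencing reads over stability bins, variants kept only with over 10 reads, mCherry proximal and sfGFP distal, peptide attached via GGGS linker.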

Row | Sequence | protein stability index [1, 3] | protein stability index [1, 4] | protein stability index [1, 5] | protein stability index [1, 6] | protein stability index [1, 7] | protein stability index [1, 8] | protein stability index [1, 9] | protein stability index [2]
1 | SFTVFVVLLFPP | 0.311 ± 0.021 | 0.437 ± 0.05 | 0.284 ± 0.032 | 0.476 ± 0.024 | 0.288 ± 0.013 | 0.304 ± 0.0095 | 0.4293 ± 0.00063 | 0.323 ± 0.062
2 | SFVGCWFVLLVR | 0.0307 ± 0.0085 | 0.0395 ± 0.0077 | 0.138 ± 0.024 | 0.235 ± 0.003 | 0.193 ± 0.0003 | 0.122 ± 0.025 | 0.159 ± 0.0049 | 0.179 ± 0.036
3 | SFWLFSSIGVCF | 0.594 ± 0.035 | 0.5958 ± 0.004 | 0.461 ± 0.031 | 0.578 ± 0.017 | 0.4316 ± 0.00081 | 0.465 ± 0.011 | 0.5772 ± 0.0052 | 0.512 ± 0.019
4 | SGMLVYFGTVCY | 0.502 ± 0.0077 | 0.599 ± 0.13 | 0.341 ± 0.03 | 0.577 ± 0.014 | 0.318 ± 0.028 | 0.357 ± 0.0091 | 0.511 ± 0.027 | 0.4498 ± 0.0028
5 | SKSRKTGWMLIS | 0.622 ± 0.055 | 0.743 ± 0.029 | 0.632 ± 0.033 | 0.74 ± 0.013 | 0.156 ± 0.014 | 0.164 ± 0.033 | 0.427 ± 0.022 | 0.153 ± 0.015
6 | SLFSPPVLATPS | 0.668 ± 0.031 | 0.7094 ± 0.0039 | 0.572 ± 0.018 | 0.705 ± 0.011 | 0.556 ± 0.02 | 0.569 ± 0.022 | 0.6797 ± 0.0026 | 0.0217 ± 0.0033
7 | SLGHIGFWRFAG | 0.554 ± 0.0087 | 0.709 ± 0.0081 | 0.66 ± 0.009 | 0.77 ± 0.011 | 0.103 ± 0.018 | 0.108 ± 0.013 | 0.169 ± 0.0063 | 0.191 ± 0.011
8 | SLLFVFVSVGCI | 0.0483 ± 0.0074 | 0.147 ± 0.0097 | 0.148 ± 0.03 | 0.246 ± 0.035 | 0.116 ± 0.0038 | 0.148 ± 0.025 | 0.166 ± 0.023 | 0.253 ± 0.016
9 | SLRSLYLLARLS | 0.518 ± 0.061 | 0.689 ± 0.047 | 0.636 ± 0.033 | 0.732 ± 0.012 | 0.076 ± 0.017 | 0.0777 ± 0.024 | 0.0971 ± 0.015 | 0.194 ± 0.021
10 | SLSPVFVAVWFL | 0.466 ± 0.012 | 0.4933 ± 0.0015 | 0.383 ± 0.057 | 0.537 ± 0.01 | 0.323 ± 0.0075 | 0.331 ± 0.016 | 0.474 ± 0.026 | 0.432 ± 0.013
11 | SLVLLLLITFSL | 0.431 ± 0.023 | 0.507 ± 0.015 | 0.376 ± 0.025 | 0.527 ± 0.014 | 0.377 ± 0.016 | 0.373 ± 0.02 | 0.495 ± 0.021 | 0.491 ± 0.017
12 | SNFFPVPLLLFR | 0.211 ± 0.0084 | 0.117 ± 0.024 | 0.309 ± 0.016 | 0.383 ± 0.0094 | 0.647 ± 0.024 | 0.297 ± 0.019 | 0.327 ± 0.031 | 0.383 ± 0.088
13 | SPCFLDPPRLIS | 0.663 ± 0.031 | 0.728 ± 0.025 | 0.681 ± 0.022 | 0.7568 ± 0.0044 | 0.287 ± 0.018 | 0.328 ± 0.032 | 0.536 ± 0.02 | 0.388 ± 0.025
14 | SPLHGFLFLVLL | 0.395 ± 0.03 | 0.445 ± 0.0069 | 0.403 ± 0.025 | 0.523 ± 0.012 | 0.528 ± 0.024 | 0.403 ± 0.028 | 0.496 ± 0.021 | 0.424 ± 0.021
15 | SPLLPPPLLFLS | 0.596 ± 0.056 | 0.7307 ± 0.0032 | 0.6555 ± 0.0025 | 0.729 ± 0.009 | 0.1475 ± 0.0013 | 0.168 ± 0.033 | 0.241 ± 0.033 | 0.211 ± 0.0097
16 | SRDSLLTLIPSC | 0.646 ± 0.058 | 0.733 ± 0.0095 | 0.6189 ± 0.002 | 0.7393 ± 0.0043 | 0.622 ± 0.017 | 0.636 ± 0.013 | 0.697 ± 0.0081 | 0.692 ± 0.037
17 | SRLVIGRWSVLV | 0.567 ± 0.045 | 0.617 ± 0.016 | 0.492 ± 0.03 | 0.6346 ± 0.0035 | 0.177 ± 0.013 | 0.217 ± 0.034 | 0.442 ± 0.0031 | 0.318 ± 0.019
18 | SRPEPNGLRKLV | 0.587 ± 0.009 | 0.727 ± 0.015 | 0.605 ± 0.029 | 0.751 ± 0.018 | 0.139 ± 0.024 | 0.172 ± 0.024 | 0.315 ± 0.052 | 0.293 ± 0.069
19 | SSAPTIVIWRFS | 0.672 ± 0.041 | 0.724 ± 0.026 | 0.592 ± 0.031 | 0.7 ± 0.0079 | 0.401 ± 0.024 | 0.428 ± 0.011 | 0.6081 ± 0.0015 | 0.495 ± 0.027
20 | SSGSLLLPRFLT | 0.658 ± 0.038 | 0.7301 ± 0.0046 | 0.672 ± 0.023 | 0.734 ± 0.019 | 0.222 ± 0.019 | 0.243 ± 0.038 | 0.54 ± 0.037 | 0.387 ± 0.03

Row | Sequence | protein stability index [1, 3] | protein stability index [1, 4] | protein stability index [1, 5] | protein stability index [1, 6] | protein stability index [1, 7] | protein stability index [1, 8] | protein stability index [1, 9] | protein stability index [2]
21 | SSLLPLLAQLVG | 0.594 ± 0.046 | 0.7484 ± 0.0013 | 0.581 ± 0.05 | 0.68255 ± 0.00041 | 0.252 ± 0.014 | 0.265 ± 0.039 | 0.411 ± 0.01 | 0.406 ± 0.05
22 | SSMSAVFRLQVC | 0.567 ± 0.0096 | 0.657 ± 0.0093 | 0.613 ± 0.017 | 0.662 ± 0.0092 | 0.228 ± 0.001 | 0.232 ± 0.015 | 0.299 ± 0.049 | 0.276 ± 0.017
23 | SSRPLSPQSLRL | 0.637 ± 0.2 | 0.709 ± 0.043 | 0.601 ± 0.051 | 0.71 ± 0.0077 | 0.60715 ± 0.00031 | 0.605 ± 0.067 | 0.658 ± 0.032 | 0.553 ± 0.17
24 | SSVCLYWCCLFV | 0.522 ± 0.036 | 0.602 ± 0.013 | 0.443 ± 0.041 | 0.535 ± 0.016 | 0.407 ± 0.0018 | 0.426 ± 0.027 | 0.5166 ± 0.00058 | 0.432 ± 0.011
25 | SSVCYFGLLFIV | 0.452 ± 0.038 | 0.561 ± 0.015 | 0.44 ± 0.026 | 0.623 ± 0.034 | 0.103 ± 0.0046 | 0.103 ± 0.022 | 0.139 ± 0.022 | 0.184 ± 0.0042
26 | SVFRFLFLALLV | 0.2 ± 0.052 | 0.162 ± 0.018 | 0.282 ± 0.029 | 0.352 ± 0.023 | 0.173 ± 0.0056 | 0.145 ± 0.0078 | 0.18 ± 0.016 | 0.191 ± 0.016
27 | SVFVFFGFIDFL | 0.52 ± 0.015 | 0.589 ± 0.12 | 0.404 ± 0.036 | 0.6007 ± 0.0035 | 0.369 ± 0.015 | 0.412 ± 0.036 | 0.581 ± 0.0099 | 0.469 ± 0.011
28 | SVLASFFSAFVC | 0.459 ± 0.0087 | 0.6975 ± 0.0014 | 0.598 ± 0.011 | 0.7258 ± 0.0054 | 0.118 ± 0.015 | 0.118 ± 0.023 | 0.149 ± 0.0027 | 0.195 ± 0.01
29 | SVLLVFRFFWEL | 0.417 ± 0.012 | 0.461 ± 0.018 | 0.397 ± 0.026 | 0.5056 ± 0.0022 | 0.295 ± 0.018 | 0.292 ± 0.029 | 0.445 ± 0.0082 | 0.405 ± 0.098
30 | SVLVWVFGLFVI | 0.411 ± 0.012 | 0.525 ± 0.013 | 0.431 ± 0.024 | 0.56 ± 0.012 | 0.42 ± 0.028 | 0.392 ± 0.028 | 0.495 ± 0.015 | 0.446 ± 0.012
31 | SVMTFVFFISAF | 0.257 ± 0.013 | 0.397 ± 0.021 | 0.243 ± 0.039 | 0.438 ± 0.021 | 0.212 ± 0.0043 | 0.238 ± 0.037 | 0.396 ± 0.0055 | 0.344 ± 0.1
32 | SWRRCLSSIPVA | 0.383 ± 0.0085 | 0.416 ± 0.012 | 0.319 ± 0.026 | 0.457 ± 0.0086 | 0.276 ± 0.0056 | 0.303 ± 0.035 | 0.438 ± 0.012 | 0.425 ± 0.013
33 | SWVVLVSFLSWR | 0.2561 ± 0.0015 | 0.3502 ± 0.0028 | 0.245 ± 0.031 | 0.4285 ± 0.003 | 0.233 ± 0.0082 | 0.232 ± 0.032 | 0.424 ± 0.031 | 0.357 ± 0.0065
34 | SWWGDVVWFVVC | 0.555 ± 0.059 | 0.649 ± 0.015 | 0.501 ± 0.015 | 0.7029 ± 0.0032 | 0.176 ± 0.018 | 0.199 ± 0.03 | 0.381 ± 0.0062 | 0.282 ± 0.03
35 | SYGNGIPIRMLH | 0.656 ± 0.035 | 0.707 ± 0.026 | 0.641 ± 0.013 | 0.728 ± 0.013 | 0.204 ± 0.013 | 0.217 ± 0.013 | 0.422 ± 0.05 | 0.329 ± 0.014
36 | SYLPSHVYIFLL | 0.275 ± 0.0049 | 0.309 ± 0.02 | 0.273 ± 0.032 | 0.4417 ± 0.0022 | 0.097 ± 0.0087 | 0.0758 ± 0.019 | 0.129 ± 0.034 | 0.128 ± 0.019
37 | TFLCSSLALAVI | 0.455 ± 0.03 | 0.509 ± 0.032 | 0.338 ± 0.022 | 0.4985 ± 0.0021 | 0.317 ± 0.023 | 0.334 ± 0.014 | 0.4789 ± 0.00054 | 0.405 ± 0.042
38 | TGYRYVGRFFVV | 0.653 ± 0.037 | 0.723 ± 0.039 | 0.588 ± 0.016 | 0.691 ± 0.016 | 0.155 ± 0.0032 | 0.163 ± 0.02 | 0.329 ± 0.011 | 0.248 ± 0.01
39 | TLCFRLSWVLLV | 0.0812 ± 0.028 | 0.15 ± 0.013 | 0.144 ± 0.02 | 0.22 ± 0.014 | 0.0335 ± 0.006 | 0.0265 ± 0.0028 | 0.0672 ± 0.022 | 0.0528 ± 0.037
